The target of this assay is T1, mouse P-selectin (mouse, UniProt Q01102).
T1 chain: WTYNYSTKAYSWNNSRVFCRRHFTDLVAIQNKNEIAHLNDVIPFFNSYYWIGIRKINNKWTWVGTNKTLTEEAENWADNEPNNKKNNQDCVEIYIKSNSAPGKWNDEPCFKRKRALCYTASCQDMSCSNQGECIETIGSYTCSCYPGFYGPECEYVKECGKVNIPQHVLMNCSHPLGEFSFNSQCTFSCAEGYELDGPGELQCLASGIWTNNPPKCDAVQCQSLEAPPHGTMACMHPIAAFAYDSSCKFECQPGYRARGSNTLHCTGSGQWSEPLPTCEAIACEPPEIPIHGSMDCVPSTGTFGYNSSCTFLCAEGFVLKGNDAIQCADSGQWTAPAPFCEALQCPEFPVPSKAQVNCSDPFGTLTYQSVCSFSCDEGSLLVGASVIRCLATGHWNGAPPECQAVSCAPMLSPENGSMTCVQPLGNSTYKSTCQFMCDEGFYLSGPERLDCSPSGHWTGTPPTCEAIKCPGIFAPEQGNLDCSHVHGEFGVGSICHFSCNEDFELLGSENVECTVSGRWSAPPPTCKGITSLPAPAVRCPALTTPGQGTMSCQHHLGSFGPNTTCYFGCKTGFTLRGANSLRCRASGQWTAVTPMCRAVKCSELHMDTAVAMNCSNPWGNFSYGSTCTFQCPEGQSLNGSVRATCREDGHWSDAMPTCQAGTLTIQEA
As to the kind of experiment: SPR, 25C.

Data on 2 molecules can be found in patent US20260356956 (published 2026).

B1: NB.PSelscFv-Crry (2.3scFv-Crry, non-blocking) (antibody)
chain: MSVPTQVLGLLLLWLTDARCQIQLVLSGPELKKPGESVKISCKASGYTFTTYGMSWVKQAPGKGLKWMGWINTSSGVPTYADDFKGRFAFSLETSASTAYLQINNLKNEDTATYFCARGGGYYGAYYFYYWGQGTTLTVSSGGGGSGGGGSGGGGSDIQMTQSPASLSASVGETVTITCRTSDNINSYLAWYLQRQGKSPQLLVYNAKTLTEGVPSRFSGSGSGTQFSLKINSLQPEDFGSYYCQHHYGPPPTFGGGTKLEIKGGGGSGGGGSCPAPSQLPSAKPINLTDESMFPIGTYLLYECLPGYIKRQFSITCKQDSTWTSAEDKCIRKQCKTPSDPENGLVHVHTGIQFGSRINYTCNQGYRLIGSSSAVCVITDQSVDWDTEAPICEWIPCEIPPGIPNGDFFSSTREDFHYGMVVTYRCNTDARGKALFNLVGEPSLYCTSNDGEIGVWSGPPPQCIELNKCTPPPYVENAVMLSENRSLFSLRDIVEFRCHPGFIMKGASSVHCQSLNKWEPELPSCFKGVICRLPQEMSGFQKGLGMKKEYYYGENVTLECEDGYTLEGSSQSQCQSDGSWNPLLAKCVSRSIIEGRHHHHHH
B1 registered a Kd of 630 nM.

B2: B.PSelscFv-Crry (2.12scFv-Crry, blocking) (antibody)
chain: MPMGSLQPLATLYLLGMLVASVLAHHHHHHIEGREVKLVESGGGLVQPGSSMKLSCTTSGFTFSDYYMAWVRQVPEKGLEWVANINYDGSSAYYLDSFKSRFTISRDNEKNILYLQMSSLKSEDTATYYCARGDWFVYWGQGTLVTVSAGGGGSGGGGSGGGGSDIQMTQSPSSMSASLGERVTITCKASQDINSYLNWFQQKPGKSPKTLIFRANRLVDGVPSRFSGSGSGQDYSLTISSLEFEDVGIYYCLQYAEFPFTFGSGTKLEIKGGGGSGGGGSCPAPSQLPSAKPINLTDESMFPIGTYLLYECLPGYIKRQFSITCKQDSTWTSAEDKCIRKQCKTPSDPENGLVHVHTGIQFGSRINYTCNQGYRLIGSSSAVCVITDQSVDWDTEAPICEWIPCEIPPGIPNGDFFSSTREDFHYGMVVTYRCNTDARGKALFNLVGEPSLYCTSNDGEIGVWSGPPPQCIELNKCTPPPYVENAVMLSENRSLFSLRDIVEFRCHPGFIMKGASSVHCQSLNKWEPELPSCFKGVICRLPQEMSGFQKGLGMKKEYYYGENVTLECEDGYTLEGSSQSQCQSDGSWNPLLAKCVSRSIIEGRHHHHHH
B2: the Kd is 333 nM.
